Where no end group is shown, it is not given here.

This note sets out measurements from patent US6362163B1, “Parathyroid hormone-related peptide analogs” (The General Hospital Corporation, priority 1996, dated 2002).

For assay [1], the target named is T1, human PTH-2 receptor (human, UniProt P49190 25-550). The experiment in a line: cell-based or functional assay.
In assay [2] the target is T1, human PTH-2 receptor. The experiment in a line: radioligand competition (tracer 125I-[Nle8,21,Tyr34]rPTH-(1-34)NH2) on transfected COS-7 cells, RT 2 h. The procedure: Assays were performed for 2 hours at room temperature. Data are the mean (± s.e.m.) of IC$50$ values obtained from the number of experiments indicated (n).
Binding reactions were performed as described previously. Id. […] Incubations were at room temperature for 2 hours, except for experiments involving Scatchard analysis, which were performed at 4° C. for 6 hours. At the end of the binding reaction, the cells were rinsed 3 times with 0.5 ml of binding buffer, lysed with 0.5 ml of 5M NaOH, and the entire lysate was counted. […] Estimates of the number of receptors/cell derived from these studies assumed a single class of binding sites and a transfection efficiency of 20% (Abou-Samra, A. B. et al., *Proc. Natl. Acad. Sci* (*USA*) 89:2732–2736 (1992)).
On the technique in general: Displacement assays read how much labelled ligand stays bound in the presence of the test substance.

T1 sequence (P49190 25-550): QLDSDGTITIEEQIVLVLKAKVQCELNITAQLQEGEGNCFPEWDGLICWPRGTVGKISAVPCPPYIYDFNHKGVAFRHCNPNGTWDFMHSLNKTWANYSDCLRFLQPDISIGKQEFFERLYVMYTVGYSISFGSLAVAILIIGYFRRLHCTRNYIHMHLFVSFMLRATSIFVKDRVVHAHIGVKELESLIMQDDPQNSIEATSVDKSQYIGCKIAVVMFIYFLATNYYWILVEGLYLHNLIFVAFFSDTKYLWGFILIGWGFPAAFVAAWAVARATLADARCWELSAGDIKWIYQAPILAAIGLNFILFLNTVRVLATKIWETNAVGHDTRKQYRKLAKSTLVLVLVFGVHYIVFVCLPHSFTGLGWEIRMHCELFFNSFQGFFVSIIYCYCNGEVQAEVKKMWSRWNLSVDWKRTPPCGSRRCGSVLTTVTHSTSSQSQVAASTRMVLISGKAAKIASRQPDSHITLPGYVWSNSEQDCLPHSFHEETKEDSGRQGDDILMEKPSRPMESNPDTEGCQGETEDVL

B1: [I5, W23, Y36]hPTHrP-(1-36)NH2 (peptide)
peptide: AVSEIQLLHDKGKSIQDLRRRFWLHHLIAEIHTAEY-NH2
notes: also called [Ile^5, Trp^23]PTHrP-(1-36); [Ile^5,Trp^32]PTHrP-(1-36) [sic]
For orientation: IC50 means the concentration at which inhibition is half-maximal. Take B1: in the assay with human PTH-2 receptor [1], the “cAMP accumulation EC50” value turned out to be 0.5 nM and the “cAMP accumulation Maximum” value is 65 pmoles/well. For the same molecule, the half-inhibitory concentration (IC50) with human PTH-2 receptor [2] was 10 nM.

B2: Hybrid-5 hPTHrP-(1-18)/[Y34]hPTH-(19-34)NH2 (peptide)
peptide: AVSEHQLLHDKGKSIQDLERVEWLRKKLQDVHNY-NH2
modifications: also: radioiodinated in direct binding test
notes: Synthetic PTH/PTHrP hybrid ligand; also called radioiodinated hybrid-5 peptide
Turning to B2, in the assay with human PTH-2 receptor [1], the “cAMP accumulation EC50” value is over 1000 nM and the “cAMP accumulation Maximum” value came to 6.2 pmoles/well. In the assay with human PTH-2 receptor [2], this molecule registered a half-inhibitory concentration (IC50) of 500 nM.
